The text below walks through data of the nanobody polyreactivity screen of Harvey et al. (2022).

The data set is described as follows: yeast display, Sf9 membrane polyspecificity reagent, FACS + sequencing; frameworks hold sequencing errors. The method in brief: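 After 36–48 hours of galactose induction, yeast (Saccharomyces cerevisiae BJ5465) displaying a synthetic nanobody library were stained at 4 °C for 1 hour with 10% biotinylated, detergent-solubilized Sf9 membrane reagent. Streptavidin microbeads enriched the stained cells before FACS sorting into low and high (top ~1%) gates on anti-HA and streptavidin fluorescence. Each clone's polyreactivity label reflects its gate of origin.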
On to “QVQLVESGGGLVQAGGSLRLSCAASGSIFSRYTRGWYRQAPGKEWELVASISRRGGRTYYADSVKGRFTISRDNAKNTVYLQMNSPKPEDTAVYYCNARGHGSAVGPFTRVNSWGQGTQVTVSS”, for which the “polyreactivity (PSR sort gate)” value is given as “high polyreactivity”.

As to “QVQLVESGGGLVQAGGSLRLSCAASGSIFSSNAMGWYIQAPGKERELVASIDGGPTTYADSVKGRFTISRDNAKNTVYLQMNSLKPEDTAVYYCNADSLDGPKFDYWGQGTQVTVSS”, the “polyreactivity (PSR sort gate)” value is reported as “low polyreactivity”.

For the sequence “QVQLVESGGGLVQAGGSLRLSCAASGSIFSSNAMGWYRPAPGKERELVAAISSGGTTNYADSVKGRFTISRDNAKHTVYLQMNSLKPEDTAVYYCAKRGPSRPAEYDYWGQGTQVTVSS”, the “polyreactivity (PSR sort gate)” value was “low polyreactivity”.

On to “QVQLVESGGGLVQAGGSLRLSCAASGSIFSSNAMGWYRPAPGKERELVAAISWNGGRTYYADSVKGRFTISRDNAKNTVYLQMNSLKPEDTAVYYCATRFYRPRDGLYDYWGQGTQVTVSS”, for which the “polyreactivity (PSR sort gate)” value is “high polyreactivity”.

Regarding “QVQLVESGGGLVQAGGSLRLSCAASGSIFSSNAMGWYRQAPGKERELVAAISKSGSRTYYADSVKGRFTISRDNAKNTVYLQMNSLKPEDTAVYYCNAVGVSVYYAIAYDYWGQGTQVTVSS”, the “polyreactivity (PSR sort gate)” value is recorded as “high polyreactivity”.

On to “QVQLVESGGGLVQAGGSLRLSCAASGSIFSSNAMGWYRQAPGKERELVAAITRGGRTTYADSVKGRFTISRDNAKNTVYLQMNSLKPEDTAVYYCAALHGRYPNRYDYWGQGTQVTVSS”, for which the “polyreactivity (PSR sort gate)” value is reported as “low polyreactivity”.

For the sequence “QVQLVESGGGLVQAGGSLRLSCAASGSIFSSYAMGWYRQAPGKERELVAAISKSGVSTYYADSVKGRFTISRDNAKNTVYLQMNSLKPEDTAVYYCNAKGKYWHYDYWGQGTQVTVSS”, the “polyreactivity (PSR sort gate)” value is recorded as “high polyreactivity”.

Turning to “QVQLVESGGGLVQAGGSLRLSCAASGSIFSSYAMGWYRQAPGKERELVAAITSGGSTYYADSVKGRFTISRDNAKNTVYLLMNSLKPEDTAVYYCAARQVRTSILHMGYWGQGTQVTVSS”, the “polyreactivity (PSR sort gate)” value is “low polyreactivity”.

Regarding “QVQLVESGGGLVQAGGSLRLSCAASGSIFSSYAMGWYRQAPGKEREVVASINSAGSTNYADSVKGRFTISRDNAKNTVYLQMNSLKPDDTAVYYCAASGGTWVNYRPEYDYWGQGTQVTVSS”, the “polyreactivity (PSR sort gate)” value was “low polyreactivity”.

As for “QVQLVESGGGLVQAGGSLRLSCAASGSIFSSYVMGWYRQAPGKEREVVAAITSRGGSTYYADSVKGRFTISRDNAKNTVYLQMNSLKPEDTAVYYCAKGGTTWYWSGYRSIYFRYDYWGQGTQVTVSS”, the “polyreactivity (PSR sort gate)” value is reported as “high polyreactivity”.

On to “QVQLVESGGGLVQAGGSLRLSCAASGSIFSTNAMGWYRQAPGKERELVAVITGIGGITYYADSVKGRFTISRDIAKNTVYLQMNSLIPEDTAVYYCAVGYWDSRYRYDLPNSDYWGQGTEVTVSS”, for which the “polyreactivity (PSR sort gate)” value is reported as “low polyreactivity”.

“QVQLVESGGGLVQAGGSLRLSCAASGSIFSTYAMGWYRQAHGKERELVAAISRSGGSTYYADSVKGRFTISRDNAKNTVYLQMNSLKPEDTAVYYCAKVGRRQRYDYWGQGTQVTVSS”: the “polyreactivity (PSR sort gate)” value was “high polyreactivity”.

Turning to “QVQLVESGGGLVQAGGSLRLSCAASGSIFSTYAMGWYRQAPGKERELVASITSTGGSTYYADSVKGRFTISRDNAKNTVYLQMNSLKPEDTAVYYCAARYRRTHRYYYAYSTMDYWGQGTQVTVSS”, the “polyreactivity (PSR sort gate)” value is on record as “high polyreactivity”.

Turning to “QVQLVESGGGLVQAGGSLRLSCAASGSIFSTYAMGWYRQAPGKERELVATIRRGGSTYYADSVKGRFTISRDNAKNTVYLQMNSLKPEDTAVYYCAATVSSYPYYRYYSWGQGTQVTVSS”, the “polyreactivity (PSR sort gate)” value was “high polyreactivity”.

“QVQLVESGGGLVQAGGSLRLSCAASGSIFSTYAMGWYRQAPGTERELVAAITWSGGSTYYADSVKGRFTISRDNAKNTVYFQMNSLKPEDTAVYYCATRGQGWGGKYGYWGQGTQVTVSS”: the “polyreactivity (PSR sort gate)” value was “low polyreactivity”.

“QVQLVESGGGLVQAGGSLRLSCAASGSIFSTYTMGWYRQAPGKERELVAAITRSGGSTYYADSVKGRFTISRDNAKNTVYLQMNSLKPEDTAVYYCAARWKFPSSFYYWGQGTQVTVSS”: the “polyreactivity (PSR sort gate)” value is on record as “high polyreactivity”.

Regarding “QVQLVESGGGLVQAGGSLRLSCAASGSIFSWNAMGWYRQAPGKERELVAAITGGGSTYYADSVKGRFTISRDNAKNTFYLQMNSLKPEDTAVYYCNALWYWDKLEYWGQGTQVTVSS”, the “polyreactivity (PSR sort gate)” value was “high polyreactivity”.

For the sequence “QVQLVESGGGLVQAGGSLRLSCAASGSIFSWYAMGSYTQAPGKESELVAAITRGGSTYADSVKGRFTISRDNAKNTVYLQMNSLKPEDTAVYYCNAVYGVYDFNYWGQGTQVTVSS”, the “polyreactivity (PSR sort gate)” value was “low polyreactivity”.

Regarding “QVQLVESGGGLVQAGGSLRLSCAASGSIFSWYAMGWYRQAPGKERELVAAITWTGGSTYYADSVKGRFTISRDNAKNTVYLQMNSLKPEDTAVYYCAARRVVYRYYWYSAYDYWGQGTQVTVSS”, the “polyreactivity (PSR sort gate)” value was “high polyreactivity”.

For “QVQLVESGGGLVQAGGSLRLSCAASGSIFSYKAMGWYRQAPGKERELVAAISWSGGRTYYADSVKGRFTISRDNAKNTVYLQMNSLKPEDTAVYYCNAQYRLYSEFNYWGQGTQVTVSS”, the “polyreactivity (PSR sort gate)” value is listed as “high polyreactivity”.

Consider “QVQLVESGGGLVQAGGSLRLSCAASGSIFSYNAMGWNRQAPGKESELVAAISWSGGRTYYADSVKGRFTISRDNAKNTVYLQMNSLKPEDTAVYYCNAQYRLYSEFNYWGQGTQVTVSS”, for which the “polyreactivity (PSR sort gate)” value was “high polyreactivity”.

With “QVQLVESGGGLVQAGGSLRLSCAASGSIFSYNAMGWYRQAPGKERELVAVITRGGSTYYADSVKGRFTISRDNAKNTVYLQMNSLKPEDTAVYYCAAGAHRRGYDYWGQGTQVTVSS”, the “polyreactivity (PSR sort gate)” value was “high polyreactivity”.

As for “QVQLVESGGGLVQAGGSLRLSCAASGSIFSYNGMGWYRQAPGKEREFVAAITWRGGSTYYADSVKGRFTISRDNAMNTVYLQMNSLKPEDTAVYYCARRPGYALTWRVSGRYDYWGQGTQVTVSS”, the “polyreactivity (PSR sort gate)” value is given as “high polyreactivity”.

“QVQLVESGGGLVQAGGSLRLSCAASGSIFSYNMGWYRQAPGKEREFVAAISSGGSTYYADSVKGRFTISRDNAKNTVYLQMNSLKPEDTAVYYCNRVRRGVWRQDDYWGQGTQVTVSS”: the “polyreactivity (PSR sort gate)” value is listed as “high polyreactivity”.

Turning to “QVQLVESGGGLVQAGGSLRLSCAASGSIFSYNTMGWYRQAPGKERELVASISSSGGTTYYADSVKGRFTISRDNAKNTVYLQMNSLKPEDTAVYYCAAKLRSYYSGPRYYYWGQGTQVTVSS”, the “polyreactivity (PSR sort gate)” value is listed as “high polyreactivity”.

In the case of “QVQLVESGGGLVQAGGSLRLSCAASGSIFSYYAMAWYRHAPGKEREMVAAITSGGATTYYADSVKGRFTISRDNAKNTVYLQMNSLKQEDTAVYFCAAGYYVYFRWWELDYWGQGTQVTVSS”, the “polyreactivity (PSR sort gate)” value was “low polyreactivity”.

In the case of “QVQLVESGGGLVQAGGSLRLSCAASGSIFSYYAMAWYRQAPGKERELVAAITWSGTRTYYADSVKGRFTISRDNAKNTVYLQMNSLKPEDTAVYYCAADSSIRDDYWGQGTQVTVSS”, the “polyreactivity (PSR sort gate)” value is “low polyreactivity”.

For the sequence “QVQLVESGGGLVQAGGSLRLSCAASGSIFSYYAMGWYRQAPGKERELFADINLDDGRTYYADSVKGRFTISRDNAKNTVYLQMNSLKPEDTAVYYCAADEFYSFRYLFGPTFDYWGQGTQVTVSS”, the “polyreactivity (PSR sort gate)” value is on record as “high polyreactivity”.

For “QVQLVESGGGLVQAGGSLRLSCAASGSIFSYYAMGWYRQAPGKERELVAAISGSGGSTYYADSVKGRFTISRDNAKNTVYLQMNSLKPDDNAVYSCAARYYAWGRRRTWDDYWGQGTQVTVSS”, the “polyreactivity (PSR sort gate)” value is reported as “high polyreactivity”.

On to “QVQLVESGGGLVQAGGSLRLSCAASGSIFSYYAMGWYRQAPGKERELVAAISKRGASTYYADSVKGRFTISRDIAKNTVYLQMNSLKPEDTAVYYCAGYRQGSAYDYWGQGTQVTVSS”, for which the “polyreactivity (PSR sort gate)” value is given as “high polyreactivity”.

With “QVQLVESGGGLVQAGGSLRLSCAASGSIFSYYAMGWYRQAPGKERELVAAISWGDDSTYYADSVKGRFTISRDNAKNTVYLQMNSLKPEDTAVYYCAADRVGWYRTFDYWGQGTQVTVSS”, the “polyreactivity (PSR sort gate)” value is recorded as “low polyreactivity”.

As for “QVQLVESGGGLVQAGGSLRLSCAASGSIFSYYAMGWYRQAPGKERELVAAISWNGGRTYYADSVKGRFTISRDNAMNTVFLQMNSLKPEDTAVYYCNAVKVYSYGLYGYWGQGTQVTVSS”, the “polyreactivity (PSR sort gate)” value is listed as “high polyreactivity”.

For “QVQLVESGGGLVQAGGSLRLSCAASGSIFSYYAMGWYRQAPGKERELVAAITGGGTTNYADSVKGRFTISRDNAKNTDYLQMNSLKPEDTAVYYCAADEPDVFAPGLYYWGQGTQVTLSS”, the “polyreactivity (PSR sort gate)” value was “low polyreactivity”.

As for “QVQLVESGGGLVQAGGSLRLSCAASGSIFSYYTMGWYRPAPGKERELVAAISYSGGRTYYADSVKGRFTISRDNAKNTVYLQMNSLKTEDTAVYYCSAKLLQLRGRGYEYWGQGTQVTVSS”, the “polyreactivity (PSR sort gate)” value was “high polyreactivity”.

Take “QVQLVESGGGLVQAGGSLRLSCAASGSIFSYYTMGWYRQAPGTERELVAASTRGGRTSYADSVKGRFTISRDNAKNTVYLQMNSLKPEDTAVYYCAADYWYFTHQLSTYGDNYWGQGTQVTVSS”: the “polyreactivity (PSR sort gate)” value is given as “low polyreactivity”.

With “QVQLVESGGGLVQAGGSLRLSCAASGSIFSYYVMGWYRQAPGKERELVAAISWSGGSTYYADSVKGRFTISRDNSKNTVYLQMNSLKPEDTAVYYCAAGTYPYYWGQGTQVTVSS”, the “polyreactivity (PSR sort gate)” value is given as “low polyreactivity”.

Take “QVQLVESGGGLVQAGGSLRLSCAASGSIFSYYVMGWYRQAPGTERELVAAISYSGGRTYYADSVKGRFTISRDNAKNTVYLQMNSLKPEDTAVYYCAASRRVGEVSYYYWGQGTQVTVSS”: the “polyreactivity (PSR sort gate)” value is “high polyreactivity”.

As to “QVQLVESGGGLVQAGGSLRLSCAASGSIFTANAMGWYRQAPGKERELVAAISRSGGNTYYADSVKGRFTISRDNAKNTVYLQMNSLKPEDTAVYYCAARQKGTGNYWGQGTQVTVSS”, the “polyreactivity (PSR sort gate)” value was “high polyreactivity”.

On to “QVQLVESGGGLVQAGGSLRLSCAASGSIFTAYAMGWYRQAPGKERELVAAITTSGDSTYYADSVKGRFTISRDNAKNTVYLQMNSLKPEDTAVYYCAAEYYSYRITTYDYWGQGTQVTVSS”, for which the “polyreactivity (PSR sort gate)” value is “high polyreactivity”.

For “QVQLVESGGGLVQAGGSLRLSCAASGSIFTDNVMGWYSQAPGKERELVAAITYSAASTYYADSVKGRFTISRDNAKNTVYLQMNSLKPEDTAVYYCNARIIYRKWLFRSGTFNYWGQGTQVTVSS”, the “polyreactivity (PSR sort gate)” value is reported as “low polyreactivity”.

On to “QVQLVESGGGLVQAGGSLRLSCAASGSIFTDYAMGWYRQAPGKERELVATITWSDASTYYTDSVKGRFTISRDNAKNTVYLQMNSLIPEDTAVYYCARRSRYSKGYDYWGQGTQVTVSS”, for which the “polyreactivity (PSR sort gate)” value is given as “low polyreactivity”.
